Assays:
[1] = molecular target: full-length human BTN3A1 on transfected cells (human) (UniProt O00481); test: flow cytometry, γδTCR tetramer-PE on BTN3A1-transfected NIH-3T3 cells treated with isotype IgG1κ (black number); SAv control 26
[2] = molecular target: full-length human BTN3A1 on transfected cells pre-treated (cross-linked) with anti-BTN3A mAb clone 20.1 (human); test: flow cytometry, FRET (YG 670/30) between TCR tetramer-PE and anti-BTN3A 20.1-AF647 on BTN3A1+ NIH-3T3 cells; with IgG1κ-AF647 the gate holds 0, with SAv 0
[3] = molecular target: G115 Vγ9Vδ2+ TCR His85γ-Ala expressed on transfected HEK293T cells; test: flow cytometry, tetramer-PE against CD3-APC on HEK293T cells co-transfected with CD3 and G115 His85γ-Ala TCR; SAv control 27
[4] = molecular target: G115 Vγ9Vδ2+ TCR Glu52δ-Ala expressed on transfected HEK293T cells; test: flow cytometry, tetramer-PE against CD3-APC on HEK293T cells co-transfected with CD3 and G115 Glu52δ-Ala TCR; SAv control 32
[5] = molecular target: G115 Vγ9Vδ2+ TCR Lys53δ-Ala expressed on transfected HEK293T cells; test: flow cytometry, tetramer-PE against CD3-APC on HEK293T cells co-transfected with CD3 and G115 Lys53δ-Ala TCR; SAv control 27
[6] = molecular target: full-length human BTN3A1 on transfected cells (human) (UniProt O00481); test: flow cytometry, control tetramer-PE on BTN3A1-transfected NIH-3T3 cells treated with isotype IgG1κ (black number); SAv control 25
[7] = molecular target: G115 Vγ9Vδ2+ TCR wild-type expressed on transfected cells; test: flow cytometry, tetramer-PE against CD3-APC on HEK293T cells co-transfected with CD3 and G115 WT TCR; SAv control 27

Sequence of mCD1d tet. ctl (P11609 22-305): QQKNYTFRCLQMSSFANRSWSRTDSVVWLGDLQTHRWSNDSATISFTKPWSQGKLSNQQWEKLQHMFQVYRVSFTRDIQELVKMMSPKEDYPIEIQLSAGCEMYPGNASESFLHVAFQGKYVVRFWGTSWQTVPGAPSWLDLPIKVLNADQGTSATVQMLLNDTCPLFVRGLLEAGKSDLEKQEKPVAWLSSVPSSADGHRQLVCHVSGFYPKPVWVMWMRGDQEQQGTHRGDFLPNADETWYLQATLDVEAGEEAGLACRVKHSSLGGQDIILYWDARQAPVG
Sequence of soluble G115 Vγ9Vδ2+ TCR wild-type (TCR delta): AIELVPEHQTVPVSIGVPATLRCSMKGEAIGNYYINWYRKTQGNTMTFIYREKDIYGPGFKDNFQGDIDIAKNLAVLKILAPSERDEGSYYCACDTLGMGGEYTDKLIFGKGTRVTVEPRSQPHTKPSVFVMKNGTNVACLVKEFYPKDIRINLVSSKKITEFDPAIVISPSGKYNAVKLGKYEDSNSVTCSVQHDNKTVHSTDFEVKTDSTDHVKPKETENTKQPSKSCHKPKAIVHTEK
Sequence of soluble G115 Vγ9Vδ2+ TCR wild-type (TCR gamma): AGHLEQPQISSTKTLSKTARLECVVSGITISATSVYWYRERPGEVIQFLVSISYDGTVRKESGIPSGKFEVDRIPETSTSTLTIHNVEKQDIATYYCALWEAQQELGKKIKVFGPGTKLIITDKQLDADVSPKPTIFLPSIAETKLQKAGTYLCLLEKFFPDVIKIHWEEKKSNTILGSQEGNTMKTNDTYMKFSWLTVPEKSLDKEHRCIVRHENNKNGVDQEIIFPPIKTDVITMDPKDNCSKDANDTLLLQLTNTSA

Substance | MFI of PE (GFP+ gate) [1] | % cells in the FRET gate [2] | MFI of PE [3] | MFI of PE [4] | MFI of PE [5] | MFI of PE (GFP+ gate) [6] | MFI of PE [7]
chimeric γδTCR tetramer: G115 pAg-reactive Vγ9+ γ-chain with 9C2 Vδ1+ δ-chain | 24 |  |  |  |  |  | 
mCD1d tet. ctl |  |  | 22 | 26 | 23 | 32 | 20

Further lines, results first:

MFI of PE (GFP+ gate) [1] | % cells in the FRET gate [2] | MFI of PE [3] | MFI of PE [4] | MFI of PE [5] | MFI of PE (GFP+ gate) [6] | MFI of PE [7] | Substance
35 | 19% |  |  |  |  |  | soluble G115 Vγ9Vδ2+ TCR wild-type
 |  | 63 | 72 | 753 |  | 102 | BTN2A1-BTN3A1-zipper ectodomain complex (construct #1, long linker version with high affinity zippers) (ligand)
 |  | 28 | 469 | 507 |  | 282 | soluble BTN2A1 ectodomain lacking Cys247 (monomeric) (from UniProt Q7KYR7 29-246) (ligand)
